# Measured values reported in paper doi:10.1101/2020.05.02.074187 (bioRxiv, 2020).
# Like-named read-outs stand apart in the source and are kept apart here.
# T1: E-cadherin endogenously expressed on the apical surface of MDCK cells (canine (endogenous in MDCK), UniProt F1PAA9 157-885)
# T1 sequence (looked up): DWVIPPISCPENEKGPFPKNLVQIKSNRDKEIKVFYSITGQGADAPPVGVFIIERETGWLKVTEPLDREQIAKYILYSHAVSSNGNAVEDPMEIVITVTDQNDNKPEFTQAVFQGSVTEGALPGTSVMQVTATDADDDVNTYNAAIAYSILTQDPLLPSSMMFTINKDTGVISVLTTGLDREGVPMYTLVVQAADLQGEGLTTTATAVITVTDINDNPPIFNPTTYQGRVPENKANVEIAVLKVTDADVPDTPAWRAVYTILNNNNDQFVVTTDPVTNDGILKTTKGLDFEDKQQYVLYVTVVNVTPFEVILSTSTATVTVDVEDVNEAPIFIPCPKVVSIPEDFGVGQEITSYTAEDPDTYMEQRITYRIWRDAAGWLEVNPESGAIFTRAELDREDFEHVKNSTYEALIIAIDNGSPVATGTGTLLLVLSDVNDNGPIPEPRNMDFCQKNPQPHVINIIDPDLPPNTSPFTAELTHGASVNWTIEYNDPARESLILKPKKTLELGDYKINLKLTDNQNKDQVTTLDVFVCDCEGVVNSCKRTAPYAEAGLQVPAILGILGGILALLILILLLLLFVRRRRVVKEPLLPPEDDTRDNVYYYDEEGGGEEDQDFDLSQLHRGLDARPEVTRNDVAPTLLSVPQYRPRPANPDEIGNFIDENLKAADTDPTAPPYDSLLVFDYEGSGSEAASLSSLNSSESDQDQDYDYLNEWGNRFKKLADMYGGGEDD
# How the values were obtained:
# Test in all cases: single-molecule AFM dynamic force spectroscopy
# [1] = biological target: T1, E-cadherin endogenously expressed on …
# [2] = biological target: T1, E-cadherin endogenously expressed on …; remark: listed apart in the source
# [3] = biological target: T1, E-cadherin endogenously expressed on …; remark: listed apart in the source
binder,measurement,setting,value
"recombinant E-cadherin extracellular region, biotinylated monomer with C-terminal Avi tag (domain or fragment, UniProt F1PAA9 157-712, looked up, biotin (biotinylated with BirA enzyme)) DWVIPPISCPENEKGPFPKNLVQIKSNRDKEIKVFYSITGQGADAPPVGVFIIERETGWLKVTEPLDREQIAKYILYSHAVSSNGNAVEDPMEIVITVTDQNDNKPEFTQAVFQGSVTEGALPGTSVMQVTATDADDDVNTYNAAIAYSILTQDPLLPSSMMFTINKDTGVISVLTTGLDREGVPMYTLVVQAADLQGEGLTTTATAVITVTDINDNPPIFNPTTYQGRVPENKANVEIAVLKVTDADVPDTPAWRAVYTILNNNNDQFVVTTDPVTNDGILKTTKGLDFEDKQQYVLYVTVVNVTPFEVILSTSTATVTVDVEDVNEAPIFIPCPKVVSIPEDFGVGQEITSYTAEDPDTYMEQRITYRIWRDAAGWLEVNPESGAIFTRAELDREDFEHVKNSTYEALIIAIDNGSPVATGTGTLLLVLSDVNDNGPIPEPRNMDFCQKNPQPHVINIIDPDLPPNTSPFTAELTHGASVNWTIEYNDPARESLILKPKKTLELGDYKINLKLTDNQNKDQVTTLDVFVCDCEGVVNSCKRTAPYAEAGLQVPA",koff,[1],2.37 s⁻¹
same,koff,[2],1.73 s⁻¹
same,koff,[3],1.77 s⁻¹
